The record followed here is publication PMC8149123.

What all share (experiment): mitochondrial relocalisation (mito-tag) assay, fluorescence microscopy; ANRP fused to Tom70-HA and mCherry held at the outer mitochondrial membrane in Drosophila embryos (cells at stage 12); ectopic recruitment of endogenous CRISPR Arp3:GFP scored by colocalisation, Pearson coefficient and GFP:mCherry intensity ratio; the paper says the approach does not differentiate between direct and indirect interactions

For experiment [1], the target named is UAS:mito:mCherry:DPod1 (D. melanogaster).
The target of experiment [2] is UAS:mito:mCherry:Coronin (D. melanogaster).
For experiment [3], the target named is UAS:mito:mCherry:Cortactin (D. melanogaster).
Experiment [4] deals with UAS:mito:mCherry:Scar (D. melanogaster).

Sequence of CRISPR Arp3:GFP (P32392 whole entry): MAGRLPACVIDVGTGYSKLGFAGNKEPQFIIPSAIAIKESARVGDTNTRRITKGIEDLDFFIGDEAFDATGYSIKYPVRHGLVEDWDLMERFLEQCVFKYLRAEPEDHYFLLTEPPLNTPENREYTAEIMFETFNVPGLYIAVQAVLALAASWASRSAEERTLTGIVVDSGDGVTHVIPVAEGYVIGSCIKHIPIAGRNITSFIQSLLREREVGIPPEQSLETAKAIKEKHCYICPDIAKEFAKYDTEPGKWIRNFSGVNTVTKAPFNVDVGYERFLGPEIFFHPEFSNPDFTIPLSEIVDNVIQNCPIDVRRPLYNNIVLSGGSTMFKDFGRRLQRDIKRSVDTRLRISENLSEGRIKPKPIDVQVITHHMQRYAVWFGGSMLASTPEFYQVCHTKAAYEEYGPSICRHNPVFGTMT
Sequence of UAS:mito:mCherry:Cortactin (D. melanogaster) (main, as listed by the source): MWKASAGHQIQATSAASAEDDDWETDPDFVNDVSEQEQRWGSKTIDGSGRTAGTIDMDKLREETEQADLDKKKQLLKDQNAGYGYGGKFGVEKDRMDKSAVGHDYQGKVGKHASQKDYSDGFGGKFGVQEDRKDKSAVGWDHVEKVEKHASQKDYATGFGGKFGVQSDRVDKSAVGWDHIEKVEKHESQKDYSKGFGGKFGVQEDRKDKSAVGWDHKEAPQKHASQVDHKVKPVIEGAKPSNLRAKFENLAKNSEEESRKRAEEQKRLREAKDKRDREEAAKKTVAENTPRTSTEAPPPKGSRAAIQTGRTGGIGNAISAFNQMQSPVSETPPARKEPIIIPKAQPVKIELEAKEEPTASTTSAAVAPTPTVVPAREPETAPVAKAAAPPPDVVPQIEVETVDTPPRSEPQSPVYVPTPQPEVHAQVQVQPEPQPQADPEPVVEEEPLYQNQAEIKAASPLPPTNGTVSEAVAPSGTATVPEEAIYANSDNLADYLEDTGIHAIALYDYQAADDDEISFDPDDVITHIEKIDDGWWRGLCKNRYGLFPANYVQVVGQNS

In the case of “CRISPR Arp3:GFP (from UniProt P32392 1-418) (natural protein)”, the Pearson correlation coefficient of colocalisation in experiment [1] was found to be 0.625; in experiment [2] it was 0.234; in experiment [3], 0.492; in experiment [4] it was 0.313. For the same substance, the percent colocalization in experiment [4] is 50%.
